Source: the supplement of paper PMC11875167

Experiment: observed amide hydrogen exchange rate constant kobs (stretched exponential fit, FD-normalized) (s^-1); higher = faster H/D exchange (less protection)
Conditions: pH 3 (pH read); temperature: 20 °C; D2O: 88%
Procedure, shortened: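 Exchange was started by placing Jurkat tryptic peptides in 88% D2O at pHread 3 and 20 °C, and was stopped with 0.23% formic acid at 13 times from 18 to 93,600 s. HDExaminer processed MS1 uptake from a Q-Exactive HF with no back-exchange correction, normalizing it to full-deuteration controls prepared for 24 h at 37 °C. The fit used a stretched single exponential with β = 0.8. The observed exchange rate constant kobs is defined as the rate from this fit.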

Row | Substance | observed amide hydrogen exchange rate constant kobs
1 | EAMEDGEIDGNK | 0.0032
2 | WTGMIIGPPR | 0.000901
3 | SNEILTAIIQGMR | 0.000423
4 | IHFPLATYAPVISAEK | 0.000691
5 | IIWQFIK | 0.000404
6 | FVSISDLLVPK | 0.000665
7 | YPIEHGIITNWDDMEK | 0.00172
8 | STGGAPTFNVTVTK | 0.000782
9 | EAFSLFDK | 0.0018
10 | QIVWNGPVGVFEWEAFAR | 0.00105
11 | TIAPALVSK | 0.000597
12 | VHLVGIDIFTGK | 0.00113
13 | VPPPPPIAR | 0.000659
14 | VFIGNLNTLVVK | 0.000428
15 | EVVEEAENGR | 0.00211
16 | FVADGIFK | 0.00103
17 | SVTEQGAELSNEER | 0.00228
18 | ALESPERPFLAILGGAK | 0.00092
19 | HSQFIGYPITLYLEK | 0.000606
20 | ESYSVYVYK | 0.000648
21 | FTQAGSEVSALLGR | 0.00109
22 | NVTLPAVFK | 0.000481
23 | AIVAIENPADVSVISSR | 0.00184
24 | VFEGNRPTNSIVFTK | 0.000712
25 | LEEDINSSMTNSTAASRPPVTLR | 0.00139
26 | GEATVSFDDPPSAK | 0.00157
27 | EANNFLWPFK | 0.000958

Row | Substance | observed amide hydrogen exchange rate constant kobs
28 | YNQLLR | 0.000842
29 | GSYGDLGGPIITTQVTIPK | 0.000771
30 | DVLFLK | 0.000617
31 | GHYTEGAELVDSVLDVVRK | 0.00131
32 | LGEMWNNTAADDKQPYEK | 0.00171
33 | IINEPTAAAIAYGLDK | 0.000776
34 | VTIAQGGVLPNIQAVLLPK | 0.000495
35 | SQIHDIVLVGGSTR | 0.00136
36 | TLHPDLGTDK | 0.00356
37 | DVIEEYFK | 0.00131
38 | EITALAPSTMK | 0.000944
39 | SVVLMSHLGRPDGVPMPDK | 0.00138
40 | VTVITK | 0.000489
41 | PFLNGLTGKPVMVK | 0.000606
42 | DALSDLALHFLNK | 0.00125
43 | VVSSIEQK | 0.00104
44 | MFVGGLSWDTSK | 0.00136
45 | IACLDFSLQK | 0.000643
46 | RSELIAK | 0.000984
47 | HQEGEIFDTEK | 0.0025
48 | FYEAFSK | 0.00122
49 | LIDDMVAQVLK | 0.000612
50 | LFFLQVK | 0.00042
51 | HELLQPFNVLYEK | 0.00104
52 | GEENLMDAQVK | 0.00185
53 | RVLIAAHGNSLR | 0.00149
54 | LTDCVVMRDPASK | 0.000824

Row | Substance | observed amide hydrogen exchange rate constant kobs
55 | SLADELALVDVLEDK | 0.00105
56 | LVLVGDGGTGK | 0.000679
57 | QITVNDLPVGR | 0.000932
58 | NIIHGSDSVESAEK | 0.00215
59 | AGAHLQGGAK | 0.00372
60 | GAVDGGLSIPHSTK | 0.00225
61 | YLNFFTK | 0.00107
62 | RGILTLK | 0.000691
63 | AVFPSIVGRPR | 0.000833
64 | DQQEAALVDMVNDGVEDLR | 0.00161
65 | VLQALEGLK | 0.00101
66 | LDGLVETPTGYIESLPR | 0.000897
67 | LVIITAGAR | 0.000717
68 | IGFPWSEIR | 0.000936
69 | VALVYGQMNEPPGAR | 0.00112
70 | QVVESAYEVIK | 0.000781
71 | LMIEMDGTENK | 0.00222
72 | AELNEFLTR | 0.00113
73 | VLNTNIDGR | 0.00162
74 | AHSSMVGVNLPQK | 0.000759
75 | YLTVAAVFR | 0.000527
76 | NPDDITQEEYGEFYK | 0.00161
77 | DQIYDIFQK | 0.000729
78 | LVQAFQFTDK | 0.00109
79 | IHPVSTMVK | 0.000804
